Laboratory results published in patent US20260250381A1.
Numbering of substitutions follows the chain as printed. Blank lines part the entries; values can stand above or below the binder they belong to.

Experiments:
human TREM2 (human) [1] = molecular target: T1, human TREM2 (human) (UniProt Q9NZC2); assay: 2nd screen, 2 nM Ab
T1 sequence (looked up): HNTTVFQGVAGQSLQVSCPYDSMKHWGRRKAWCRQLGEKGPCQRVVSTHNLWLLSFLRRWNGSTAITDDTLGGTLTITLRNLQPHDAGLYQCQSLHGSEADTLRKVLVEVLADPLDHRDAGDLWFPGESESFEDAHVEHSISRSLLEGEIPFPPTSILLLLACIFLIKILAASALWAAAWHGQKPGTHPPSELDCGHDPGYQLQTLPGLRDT

human TREM2 (human) [2] = molecular target: T1, human TREM2 (human); assay: 1st screen, 10 nM Ab
human TREM2 (human) [3] = molecular target: T1, human TREM2 (human); assay: 2nd screen, 10 nM Ab

- Binding Signal (fold over 6E7 parental antibody) (human TREM2 (human) [1]): 4.34 fold
- Binding Signal (fold over 6E7 parental antibody) (human TREM2 (human) [2]): 4.57 fold
- Binding Signal (fold over 6E7 parental antibody) (human TREM2 (human) [3]): 4.93 fold
B4: 6E7 variant V76 (antibody, V domains shown)
VH: EVQLVQSGAEVKKPGESLKISCKGSGYSFGSYWIAWVRQMPGKGLEWMGIIYPGDSDTRYSPEFQGQVTISADKSISTAYLQWSSLKASDTAMYFCARQRTFYYDSSDYSDYWGQGTLVTVSS
VL: DIQMTQSPSSVSASVGDRVTITCRASQGISSWLAWYQQKPGKAPKLLIYAASSLQKGVPSRFSGSGSGRDFTLTISSLQPEDFATYFCQQADSFPRTFGQGTKLEIK

- Binding Signal (fold over 6E7 parental antibody) (human TREM2 (human) [1]): 2.54 fold
- Binding Signal (fold over 6E7 parental antibody) (human TREM2 (human) [2]): 3.94 fold
- Binding Signal (fold over 6E7 parental antibody) (human TREM2 (human) [3]): 4.01 fold
B6: 6E7 variant V74 (antibody, V domains shown)
VH: B4 VH with G30A, T58V, E63S, Q99G, S110F
VL: B4 VL with K56L, R69T

- Binding Signal (fold over 6E7 parental antibody) (human TREM2 (human) [1]): 4.86 fold
- Binding Signal (fold over 6E7 parental antibody) (human TREM2 (human) [2]): 3.84 fold
- Binding Signal (fold over 6E7 parental antibody) (human TREM2 (human) [3]): 3.93 fold
B7: 6E7 variant V87 (antibody, V domains shown)
VH: B4 VH with G30R, T58V, E63D, Q99S, S110F
VL: B4 VL with K56W, R69T

- Binding Signal (fold over 6E7 parental antibody) (human TREM2 (human) [1]): 5.17 fold
- Binding Signal (fold over 6E7 parental antibody) (human TREM2 (human) [2]): 4.8 fold
- Binding Signal (fold over 6E7 parental antibody) (human TREM2 (human) [3]): 5.02 fold
B9: 6E7 variant V86 (antibody, V domains shown)
VH: B4 VH with I34L, E63S, Q65E, Q99S, S110F
VL: B4 VL with L54R, K56N, R69T

- Binding Signal (fold over 6E7 parental antibody) (human TREM2 (human) [1]): 4.17 fold
- Binding Signal (fold over 6E7 parental antibody) (human TREM2 (human) [2]): 5.12 fold
- Binding Signal (fold over 6E7 parental antibody) (human TREM2 (human) [3]): 5.44 fold
B11: 6E7 variant V73 (antibody, V domains shown)
VH: B4 VH with E63G, Q99G, S110F
VL: B4 VL with L54R, K56N, R69T, F94Y

- Binding Signal (fold over 6E7 parental antibody) (human TREM2 (human) [1]): 0.83 fold
- Binding Signal (fold over 6E7 parental antibody) (human TREM2 (human) [2]): 1.43 fold
- Binding Signal (fold over 6E7 parental antibody) (human TREM2 (human) [3]): 1.38 fold
B14: 6E7 variant V77 (antibody, V domains shown)
VH: B4 VH with G30T, E63S, S110F
VL: B4 VL with L54R, K56N, R69T

- Binding Signal (fold over 6E7 parental antibody) (human TREM2 (human) [1]): 5.57 fold
- Binding Signal (fold over 6E7 parental antibody) (human TREM2 (human) [2]): 4.92 fold
- Binding Signal (fold over 6E7 parental antibody) (human TREM2 (human) [3]): 5.3 fold
B15: 6E7 variant V88 (antibody, V domains shown)
VH: B4 VH with E63S, S110F
VL: B4 VL with S53R, K56R, R69T, F94S

More lines, now with the values behind:

B1: 6E7 variant V39 (antibody, V domains shown)
VH: B4 VH with S61N, E63S, Q99G, S110F
VL: B4 VL with Q55V, K56N, R69T, F94S
- Binding Signal (fold over 6E7 parental antibody) (human TREM2 (human) [1]): 5.11 fold
- Binding Signal (fold over 6E7 parental antibody) (human TREM2 (human) [2]): 6.15 fold
- Binding Signal (fold over 6E7 parental antibody) (human TREM2 (human) [3]): 5.81 fold

B2: 6E7 variant V5 (antibody, V domains shown)
VH: B4 VH with G30T, I50T, E63S, S110F
VL: B4 VL with K56N, R69T, F94H
- Binding Signal (fold over 6E7 parental antibody) (human TREM2 (human) [1]): 1.25 fold
- Binding Signal (fold over 6E7 parental antibody) (human TREM2 (human) [2]): 2.73 fold
- Binding Signal (fold over 6E7 parental antibody) (human TREM2 (human) [3]): 2.84 fold

B3: 6E7 variant V61 (antibody, V domains shown)
VH: B4 VH with G30S, S61N, E63S, Q99G, S110F
VL: B4 VL with Q55V, K56N, R69T, F94L
- Binding Signal (fold over 6E7 parental antibody) (human TREM2 (human) [1]): 3.63 fold
- Binding Signal (fold over 6E7 parental antibody) (human TREM2 (human) [2]): 5.08 fold
- Binding Signal (fold over 6E7 parental antibody) (human TREM2 (human) [3]): 5.22 fold

B5: 6E7 variant V40 (antibody, V domains shown)
VH: B4 VH with T58V, E63S
VL: B4 VL with K56L, R69T, S93R
- Binding Signal (fold over 6E7 parental antibody) (human TREM2 (human) [1]): 3.41 fold
- Binding Signal (fold over 6E7 parental antibody) (human TREM2 (human) [2]): 4.48 fold
- Binding Signal (fold over 6E7 parental antibody) (human TREM2 (human) [3]): 4.16 fold

B8: 6E7 variant V63 (antibody, V domains shown)
VH: B4 VH with G30R, E63S, Q99S, S110F
VL: B4 VL with K56R, R69T, S93R
- Binding Signal (fold over 6E7 parental antibody) (human TREM2 (human) [1]): 4.91 fold
- Binding Signal (fold over 6E7 parental antibody) (human TREM2 (human) [2]): 3.76 fold
- Binding Signal (fold over 6E7 parental antibody) (human TREM2 (human) [3]): 3.71 fold

B10: 6E7 variant V51 (antibody, V domains shown)
VH: B4 VH with G30T, T58V, E63S, Q99G, S110F, Y112N
VL: B4 VL with L54R, K56N, R69T
- Binding Signal (fold over 6E7 parental antibody) (human TREM2 (human) [1]): 1.83 fold
- Binding Signal (fold over 6E7 parental antibody) (human TREM2 (human) [2]): 2.81 fold
- Binding Signal (fold over 6E7 parental antibody) (human TREM2 (human) [3]): 3.18 fold

B12: 6E7 variant V41 (antibody, V domains shown)
VH: B4 VH with G30T, I50T, E63S, S110F
VL: B4 VL with K56N, R69T
- Binding Signal (fold over 6E7 parental antibody) (human TREM2 (human) [1]): 0.58 fold
- Binding Signal (fold over 6E7 parental antibody) (human TREM2 (human) [2]): 1.74 fold
- Binding Signal (fold over 6E7 parental antibody) (human TREM2 (human) [3]): 1.72 fold

B13: 6E7 variant V64 (antibody, V domains shown)
VH: B4 VH with G30Q, E63S, Q99G, S110F
VL: B4 VL with Q55A, K56N, R69T, F94Y
- Binding Signal (fold over 6E7 parental antibody) (human TREM2 (human) [1]): 4.88 fold
- Binding Signal (fold over 6E7 parental antibody) (human TREM2 (human) [2]): 5.41 fold
- Binding Signal (fold over 6E7 parental antibody) (human TREM2 (human) [3]): 5.48 fold
